How the values were obtained:
[1] = biological target: R. shameli ACE2‐mFC (Rhinolophus shameli); test: SPR
S309 = test: SPR

SARS‐CoV‐2 RBD (from UniProt P0DTC2 319-541) (domain or fragment)
Kd [1]: 6.64 µM

RshSTT182/200 receptor binding domain (RBD) (domain or fragment)
Kd (S309): 0.00375 µM

Source: paper PMC9877840
